Key:
La = target: T1, La (human, UniProt P05455 1-408); experiment: EMSA; 10-fold molar excess competitor tRNA; >90% of RNA shifted at 1:1 protein:RNA; 10 mM Tris-HCl pH 7.5, 100 mM NaCl, 3 mM MgCl2, 1 mM DTT, 10-fold molar excess tRNA, 80 ng hY1 RNA, 15 min at 37 C; native 8% PAGE at 4 C; settings: protein: recombinant; label: 32P (alpha-32P UTP, internal)
T1 sequence: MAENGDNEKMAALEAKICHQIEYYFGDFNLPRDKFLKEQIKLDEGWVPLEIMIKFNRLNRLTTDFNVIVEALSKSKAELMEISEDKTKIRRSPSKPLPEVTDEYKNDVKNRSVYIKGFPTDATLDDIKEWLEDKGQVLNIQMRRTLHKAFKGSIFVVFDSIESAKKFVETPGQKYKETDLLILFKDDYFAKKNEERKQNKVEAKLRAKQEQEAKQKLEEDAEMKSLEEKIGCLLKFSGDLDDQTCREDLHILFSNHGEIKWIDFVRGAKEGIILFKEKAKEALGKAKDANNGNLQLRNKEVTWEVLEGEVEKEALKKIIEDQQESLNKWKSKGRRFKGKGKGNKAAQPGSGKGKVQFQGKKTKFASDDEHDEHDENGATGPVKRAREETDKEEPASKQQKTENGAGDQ

Ro60 = Ro60 (human, UniProt P10155 1-538); experiment: EMSA; 10-fold molar excess competitor tRNA; about 30-40% of RNA shifted at 4:1 protein:RNA; 10 mM Tris-HCl pH 7.5, 100 mM NaCl, 3 mM MgCl2, 1 mM DTT, 10-fold molar excess tRNA, 80 ng hY1 RNA, 15 min at 37 C; native 8% PAGE at 4 C; settings: protein: recombinant; tags: poly-His (pET28a); label: 32P (alpha-32P UTP, internal)
Ro60, sequence (P10155 whole entry): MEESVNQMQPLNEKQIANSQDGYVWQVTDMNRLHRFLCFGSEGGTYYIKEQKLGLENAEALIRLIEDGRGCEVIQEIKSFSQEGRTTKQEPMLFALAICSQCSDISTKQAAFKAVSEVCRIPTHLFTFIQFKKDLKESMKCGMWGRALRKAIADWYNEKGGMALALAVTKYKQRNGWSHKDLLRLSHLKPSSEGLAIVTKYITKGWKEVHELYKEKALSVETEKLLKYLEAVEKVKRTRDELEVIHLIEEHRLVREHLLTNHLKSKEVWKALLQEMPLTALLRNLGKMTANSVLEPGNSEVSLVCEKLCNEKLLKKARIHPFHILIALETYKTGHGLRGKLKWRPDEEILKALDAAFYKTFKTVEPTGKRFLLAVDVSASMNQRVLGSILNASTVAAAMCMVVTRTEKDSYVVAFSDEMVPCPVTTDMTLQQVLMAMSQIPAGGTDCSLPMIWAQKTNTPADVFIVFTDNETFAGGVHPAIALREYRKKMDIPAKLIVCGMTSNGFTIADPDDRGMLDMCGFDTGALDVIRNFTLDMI

Ro60;La = Ro60;La (human;human, UniProt P10155;P05455 1-538;1-408, |); experiment: EMSA; 10-fold molar excess competitor tRNA; RNA:Ro60:La 1:4:4; super-shift, ternary complex; 10 mM Tris-HCl pH 7.5, 100 mM NaCl, 3 mM MgCl2, 1 mM DTT, 10-fold molar excess tRNA, 80 ng hY1 RNA, 15 min at 37 C; native 8% PAGE at 4 C; settings: protein: recombinant;recombinant; copies: 1;1; label: 32P (alpha-32P UTP, internal)
Ro60;La, sequence (P10155 whole entry, one chain of several): as the sequence (P10155 whole entry) above

Measured: binding result

B1: hY1 RNA (structured_RNA)
RNA: GGCUGGUCCGAAGGUAGUGAGUUAUCUCAAUUGAUUGUUCACAGUCAGUUACAGAUCGAACUCCUUGUUCUACUCUUUCCCCCCUUCUCACUACUGCACUUGACUAGUCUUU
binds: all assays above

Reference: article PMC2965120, “Ribonucleoprotein Particles Containing Non-Coding Y RNAs, Ro60, La and Nucleolin Are Not Required for Y RNA Function in DNA Replication”
